Data reported in publication PMC3627646.
Blank lines part the entries; values can stand above or below the molecule they belong to.

Experiments:
[1] = molecular target: Ankyrin2, large isoform (Ank2-L) (Drosophila (endogenous in larval brain))
[2] = molecular target: Ank2-S–EGFP (short isoform of Ank2 containing all potential Nrg interacting domains) (Drosophila); experiment: co-IP; S2 cells co-transfected with act5C–Gal4, UAS–Ank2-S–EGFP and UAS–Nrg–3xHA; IP of Nrg180-HA proteins using Ank2-S–GFP; blots with anti-HA and anti-GFP; four independent IPs quantified (Odyssey2.1)
[3] = molecular target: Ankyrin2, large isoform (Ank2-L) (Drosophila (endogenous in larval brain)); remark: listed apart in the source

Molecule: Nrg180-HA Y-A (tyrosine of the FIGQY motif replaced with alanine) (from UniProt P20241-1 24-1302) (natural protein)
FRAP of GFP-tagged Nrg180^Y-A in motoneurons in vivo (ok371–Gal4): mobility against wild type (fold against wild type) [1]: > 1.5
decrease in binding capacities compared to wild-type [2]: 90%

B1: Nrg180-HA, wild type (UAS–Nrg–3xHA) (natural protein)
chain: KGNRPPRITKQPAPGELLFKVAQQNKESDNPFIIECEADGQPEPEYSWIKNGKKFDWQAYDNRMLRQPGRGTLVITIPKDEDRGHYQCFASNEFGTATSNSVYVRKAELNAFKDEAAKTLEAVEGEPFMLKCAAPDGFPSPTVNWMIQESIDGSIKSINNSRMTLDPEGNLWFSNVTREDASSDFYYACSATSVFRSEYKIGNKVLLDVKQMGVSASQNKHPPVRQYVSRRQSLALRGKRMELFCIYGGTPLPQTVWSKDGQRIQWSDRITQGHYGKSLVIRQTNFDDAGTYTCDVSNGVGNAQSFSIILNVNSVPYFTKEPEIATAAEDEEVVFECRAAGVPEPKISWIHNGKPIEQSTPNPRRTVTDNTIRIINLVKGDTGNYGCNATNSLGYVYKDVYLNVQAEPPTISEAPAAVSTVDGRNVTIKCRVNGSPKPLVKWLRASNWLTGGRYNVQANGDLEIQDVTFSDAGKYTCYAQNKFGEIQADGSLVVKEHTRITQEPQNYEVAAGQSATFRCNEAHDDTLEIEIDWWKDGQSIDFEAQPRFVKTNDNSLTIAKTMELDSGEYTCVARTRLDEATARANLIVQDVPNAPKLTGITCQADKAEIHWEQQGDNRSPILHYTIQFNTSFTPASWDAAYEKVPNTDSSFVVQMSPWANYTFRVIAFNKIGASPPSAHSDSCTTQPDVPFKNPDNVVGQGTEPNNLVISWTPMPEIEHNAPNFHYYVSWKRDIPAAAWENNNIFDWRQNNIVIADQPTFVKYLIKVVAINDRGESNVAAEEVVGYSGEDRPLDAPTNFTMRQITSSTSGYMAWTPVSEESVRGHFKGYKIQTWTENEGEEGLREIHVKGDTHNALVTQFKPDSKNYARILAYNGRFNGPPSAVIDFDTPEGVPSPVQGLDAYPLGSSAFMLHWKKPLYPNGKLTGYKIYYEEVKESYVGERREYDPHITDPRVTRMKMAGLKPNSKYRISITATTKMGEGSEHYIEKTTLKDAVNVAPATPSFSWEQLPSDNGLAKFRINWLPSTEGHPGTHFFTMHRIKGETQWIRENEEKNSDYQEVGGLDPETAYEFRVVSVDGHFNTESATQEIDTNTVEGPIMVANETVANAGWFIGMMLALAFIIILFIIICIIRRNRGGKYDVHDRELANGRRDYPEEGGFHEYSQPLDNKSAGRQSVSSANKPGVESDTDSMAEYGDGDTGQFTEDGSFIGQYVPGKLQPPVSPQPLNNSAAAHQAAPTAGGSGAAGSAAAAGASGGASSAGGAAASNGGAAAGAVATYV
FRAP of GFP-tagged Nrg180 in motoneurons in vivo (ok371–Gal4): mobile fraction (% of total protein) [3]: 40

Second part, the molecule after the results:

FRAP of GFP-tagged Nrg180^Y-F in motoneurons in vivo (ok371–Gal4): mobility against wild type (fold against wild type) [1]: > 1.5
decrease in binding capacities compared to wild-type [2]: 30%
Molecule: Nrg180-HA Y-F (tyrosine of the FIGQY motif replaced with phenylalanine) (from UniProt P20241-1 24-1302) (natural protein)

FRAP of GFP-tagged Nrg180^Y-D in motoneurons in vivo (ok371–Gal4): mobility against wild type (fold against wild type) [1]: > 1.5
decrease in binding capacities compared to wild-type [2]: 70%
Molecule: Nrg180-HA Y-D (tyrosine of the FIGQY motif replaced with aspartate) (from UniProt P20241-1 24-1302) (natural protein)

FRAP of GFP-tagged Nrg180^ΔFIGQY in motoneurons in vivo (ok371–Gal4): mobile fraction [3]: 80%
Molecule: Nrg180-HA ΔFIGQY (entire FIGQY motif deleted) (from UniProt P20241-1 24-1302) (natural protein)
